We go through four sequences from the supplement of paper PMC5998384.

For data set [1], the system named is HeLa Kyoto. Description: solubility change mitosis vs G1/S (difference of NP-40 vs SDS log2 ratios) (log2 ratio difference); higher = more soluble in mitosis.
For data set [2], the system named is HeLa Kyoto. Kind of data set: thermal stability score vs G1/S (z-score of summed log2 fold changes over temperatures); higher = more thermally stable than in G1/S.
The test system of data set [3] is HeLa Kyoto. Kind of data set: solubility in G1/S (NP-40 vs SDS abundance) (log2 ratio); higher = more soluble. To be noted: cell cycle stage: G1/S.
Data set [4] has as its system HeLa Kyoto. Description: melting temperature (median over replicates), in situ; higher = more thermally stable.
Setting [5] is: cell cycle stage: early G1 (4.5 h after nocodazole release).
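For melting temperature (median over replicates), in situ in this document: HeLa Kyoto cells synchronized by double thymidine or nocodazole block, proteins quantified by TMT10plex mass spectrometry, three independent biological replicates.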
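For solubility change mitosis vs G1/S (difference of NP-40 vs SDS log2 ratios) in this document: synchronized HeLa Kyoto cells (double thymidine block for G1/S, nocodazole release for mitosis), protein amounts in NP-40 versus SDS lysates quantified by mass spectrometry, three biological replicates.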
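For solubility in G1/S (NP-40 vs SDS abundance) in this document: HeLa Kyoto cells arrested at G1/S by double thymidine block, proteins quantified by TMT10plex mass spectrometry in mild NP-40 versus SDS extracts, three biological replicates.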
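For thermal stability score vs G1/S (z-score of summed log2 fold changes over temperatures) in this document: synchronized HeLa Kyoto cells, proteins quantified by TMT10plex mass spectrometry, three biological replicates, mitosis taken 0.5 h after nocodazole release, G1/S directly after double thymidine block.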

For “MSRLKRIAGQDLRAGFKAGGRDCGTSVPQGLLKAARKSGQLNLSGRNLSEVPQCVWRINVDIPEEANQNLSFGATERWWEQTDLTKLIISNNKLQSLTDDLRLLPALTVLDIHDNQLTSLPSAIRELENLQKLNVSHNKLKILPEEITNLRNLKCLYLQHNELTCISEGFEQLSNLEDLDLSNNHLTTVPASFSSLSSLVRLNLSSNELKSLPAEINRMKRLKHLDCNSNLLETIPPELAGMESLELLYLRRNKLRFLPEFPSCSLLKELHVGENQIEMLEAEHLKHLNSILVLDLRDNKLKSVPDEIILLRSLERLDLSNNDISSLPYSLGNLHLKFLALEGNPLRTIRREIISKGTQEVLKYLRSKIKDDGPSQSESATETAMTLPSESRVNIHAIITLKILDYSDKQATLIPDEVFDAVKSNIVTSINFSKNQLCEIPKRMVELKEMVSDVDLSFNKLSFISLELCVLQKLTFLDLRNNFLNSLPEEMESLVRLQTINLSFNRFKMLPEVLYRIFTLETILISNNQVGSVDPQKMKMMENLTTLDLQNNDLLQIPPELGNCVNLRTLLLDGNPFRVPRAAILMKGTAAILEYLRDRIPT [LRRC40]”, the “solubility change mitosis (log2)” value in the data set with HeLa Kyoto [1] was -0.167. Also, the thermal stability score in the data set with HeLa Kyoto [2] (setting [5]) was 0.285; in the data set with HeLa Kyoto [2] (cell cycle stage: mitosis), 1.77. Also, the “solubility in G1/S (log2)” value with HeLa Kyoto [3] amounted to 0.322. Moreover, the melting temperature in the data set with HeLa Kyoto [4] (cell cycle stage: G1/S) and in the data set with HeLa Kyoto [4] (cell cycle stage: mitosis) was 49.2 °C throughout.
As for “MSRLLWRKVAGATVGPGPVPAPGRWVSSSVPASDPSDGQRRRQQQQQQQQQQQQQPQQPQVLSSEGGQLRHNPLDIQMLSRGLHEQIFGQGGEMPGEAAVRRSVEHLQKHGLWGQPAVPLPDVELRLPPLYGDNLDQHFRLLAQKQSLPYLEAANLLLQAQLPPKPPAWAWAEGWTRYGPEGEAVPVAIPEERALVFDVEVCLAEGTCPTLAVAISPSAWYSWCSQRLVEERYSWTSQLSPADLIPLEVPTGASSPTQRDWQEQLVVGHNVSFDRAHIREQYLIQGSRMRFLDTMSMHMAISGLSSFQRSLWIAAKQGKHKVQPPTKQGQKSQRKARRGPAISSWDWLDISSVNSLAEVHRLYVGGPPLEKEPRELFVKGTMKDIRENFQDLMQYCAQDVWATHEVFQQQLPLFLERCPHPVTLAGMLEMGVSYLPVNQNWERYLAEAQGTYEELQREMKKSLMDLANDACQLLSGERYKEDPWLWDLEWDLQEFKQKKAKKVKKEPATASKLPIEGAGAPGDPMDQEDLGPCSEEEEFQQDVMARACLQKLKGTTELLPKRPQHLPGHPGWYRKLCPRLDDPAWTPGPSLLSLQMRVTPKLMALTWDGFPLHYSERHGWGYLVPGRRDNLAKLPTGTTLESAGVVCPYRAIESLYRKHCLEQGKQQLMPQEAGLAEEFLLTDNSAIWQTVEELDYLEVEAEAKMENLRAAVPGQPLALTARGGPKDTQPSYHHGNGPYNDVDIPGCWFFKLPHKDGNSCNVGSPFAKDFLPKMEDGTLQAGPGGASGPRALEINKMISFWRNAHKRISSQMVVWLPRSALPRAVIRHPDYDEEGLYGAILPQVVTAGTITRRAVEPTWLTASNARPDRVGSELKAMVQAPPGYTLVGADVDSQELWIAAVLGDAHFAGMHGCTAFGWMTLQGRKSRGTDLHSKTATTVGISREHAKIFNYGRIYGAGQPFAERLLMQFNHRLTQQEAAEKAQQMYAATKGLRWYRLSDEGEWLVRELNLPVDRTEGGWISLQDLRKVQRETARKSQWKKWEVVAERAWKGGTESEMFNKLESIATSDIPRTPVLGCCISRALEPSAVQEEFMTSRVNWVVQSSAVDYLHLMLVAMKWLFEEFAIDGRFCISIHDEVRYLVREEDRYRAALALQITNLLTRCMFAYKLGLNDLPQSVAFFSAVDIDRCLRKEVTMDCKTPSNPTGMERRYGIPQGEALDIYQIIELTKGSLEKRSQPGP [POLG]”, in the data set with HeLa Kyoto [1], the “solubility change mitosis (log2)” value is -0.0443. Further, the thermal stability score in the data set with HeLa Kyoto [2] (setting [5]) came out at 0.521; in the data set on HeLa Kyoto [2] (cell cycle stage: mitosis), 0.308. Besides, in the data set on HeLa Kyoto [3], the “solubility in G1/S (log2)” value was 0.0107. For the same sequence, the melting temperature in the data set on HeLa Kyoto [4] (cell cycle stage: G1/S) was found to be 50.3 °C; in the data set with HeLa Kyoto [4] (cell cycle stage: mitosis), 50.6 °C.
Turning to “MSRPPPTGKMPGAPETAPGDGAGASRQRKLEALIRDPRSPINVESLLDGLNSLVLDLDFPALRKNKNIDNFLNRYEKIVKKIRGLQMKAEDYDVVKVIGRGAFGEVQLVRHKASQKVYAMKLLSKFEMIKRSDSAFFWEERDIMAFANSPWVVQLFYAFQDDRYLYMVMEYMPGGDLVNLMSNYDVPEKWAKFYTAEVVLALDAIHSMGLIHRDVKPDNMLLDKHGHLKLADFGTCMKMDETGMVHCDTAVGTPDYISPEVLKSQGGDGFYGRECDWWSVGVFLYEMLVGDTPFYADSLVGTYSKIMDHKNSLCFPEDAEISKHAKNLICAFLTDREVRLGRNGVEEIRQHPFFKNDQWHWDNIRETAAPVVPELSSDIDSSNFDDIEDDKGDVETFPIPKAFVGNQLPFIGFTYYRENLLLSDSPSCRETDSIQSRKNEESQEIQKKLYTLEEHLSNEMQAKEELEQKCKSVNTRLEKTAKELEEEITLRKSVESALRQLEREKALLQHKNAEYQRKADHEADKKRNLENDVNSLKDQLEDLKKRNQNSQISTEKVNQLQRQLDETNALLRTESDTAARLRKTQAESSKQIQQLESNNRDLQDKNCLLETAKLKLEKEFINLQSALESERRDRTHGSEIINDLQGRICGLEEDLKNGKILLAKVELEKRQLQERFTDLEKEKSNMEIDMTYQLKVIQQSLEQEEAEHKATKARLADKNKIYESIEEAKSEAMKEMEKKLLEERTLKQKVENLLLEAEKRCSLLDCDLKQSQQKINELLKQKDVLNEDVRNLTLKIEQETQKRCLTQNDLKMQTQQVNTLKMSEKQLKQENNHLMEMKMNLEKQNAELRKERQDADGQMKELQDQLEAEQYFSTLYKTQVRELKEECEEKTKLGKELQQKKQELQDERDSLAAQLEITLTKADSEQLARSIAEEQYSDLEKEKIMKELEIKEMMARHKQELTEKDATIASLEETNRTLTSDVANLANEKEELNNKLKDVQEQLSRLKDEEISAAAIKAQFEKQLLTERTLKTQAVNKLAEIMNRKEPVKRGNDTDVRRKEKENRKLHMELKSEREKLTQQMIKYQKELNEMQAQIAEESQIRIELQMTLDSKDSDIEQLRSQLQALHIGLDSSSIGSGPGDAEADDGFPESRLEGWLSLPVRNNTKKFGWVKKYVIVSSKKILFYDSEQDKEQSNPYMVLDIDKLFHVRPVTQTDVYRADAKEIPRIFQILYANEGESKKEQEFPVEPVGEKSNYICHKGHEFIPTLYHFPTNCEACMKPLWHMFKPPPALECRRCHIKCHKDHMDKKEEIIAPCKVYYDISTAKNLLLLANSTEEQQKWVSRLVKKIPKKPPAPDPFARSSPRTSMKIQQNQSIRRPSRQLAPNKPS [ROCK2]”, the “solubility change mitosis (log2)” value in the data set on HeLa Kyoto [1] is -0.132. In addition, the figures for the thermal stability score in the data set on HeLa Kyoto [2] (setting [5]) and in the data set with HeLa Kyoto [2] (cell cycle stage: mitosis) were 0.406 and 1.46, respectively. Also, in the data set on HeLa Kyoto [3], the “solubility in G1/S (log2)” value was 0.0267. The melting temperature in the data set on HeLa Kyoto [4] (cell cycle stage: G1/S) was determined as 49.8 °C; in the data set on HeLa Kyoto [4] (cell cycle stage: mitosis), 49.4 °C.
As for “MSRRSQRLTRYSQGDDDGSSSSGGSSVAGSQSTLFKDSPLRTLKRKSSNMKRLSPAPQLGPSSDAHTSYYSESLVHESWFPPRSSLEELHGDANWGEDLRVRRRRGTGGSESSRASGLVGRKATEDFLGSSSGYSSEDDYVGYSDVDQQSSSSRLRSAVSRAGSLLWMVATSPGRLFRLLYWWAGTTWYRLTTAASLLDVFVLTRRFSSLKTFLWFLLPLLLLTCLTYGAWYFYPYGLQTFHPALVSWWAAKDSRRPDEGWEARDSSPHFQAEQRVMSRVHSLERRLEALAAEFSSNWQKEAMRLERLELRQGAPGQGGGGGLSHEDTLALLEGLVSRREAALKEDFRRETAARIQEELSALRAEHQQDSEDLFKKIVRASQESEARIQQLKSEWQSMTQESFQESSVKELRRLEDQLAGLQQELAALALKQSSVAEEVGLLPQQIQAVRDDVESQFPAWISQFLARGGGGRVGLLQREEMQAQLRELESKILTHVAEMQGKSAREAAASLSLTLQKEGVIGVTEEQVHHIVKQALQRYSEDRIGLADYALESGGASVISTRCSETYETKTALLSLFGIPLWYHSQSPRVILQPDVHPGNCWAFQGPQGFAVVRLSARIRPTAVTLEHVPKALSPNSTISSAPKDFAIFGFDEDLQQEGTLLGKFTYDQDGEPIQTFHFQAPTMATYQVVELRILTNWGHPEYTCIYRFRVHGEPAH [SUN2]”, the “solubility change mitosis (log2)” value in the data set on HeLa Kyoto [1] is 0.229. The thermal stability score is -1.84 with HeLa Kyoto [2] (setting [5]) and -1.17 in the data set with HeLa Kyoto [2] (cell cycle stage: mitosis). In the data set with HeLa Kyoto [3], the “solubility in G1/S (log2)” value was -0.141. The melting temperature in the data set on HeLa Kyoto [4] (cell cycle stage: G1/S) was 52.4 °C; in the data set on HeLa Kyoto [4] (cell cycle stage: mitosis), 55.1 °C.
